Measurements reported in publication PMC7138851, “Quantitative assessment of the determinant structural differences between redox-active and inactive glutaredoxins” (Nature Communications, 2020).

Experiments:
Test in all cases: purified protein, by the assay type
Set-up in all cases: GSSCys oxidoreductase assay, steady-state kinetics, coupled NADPH consumption at 340 nm, pH 8.0, 25 °C
Settings in all cases: pH 8.0; 25.0 °C
[1] = substrate: N[C@@H](CCC(=O)N[C@@H](CS)C(=O)NCC(=O)O)C(=O)O
Protocol: (§1) Steady-state kinetics of wild-type and mutant ScGrx7 and HsGrx5^C122S in the GSSCys and [compound left out] assays were determined spectrophotometrically by monitoring the consumption of NADPH at 340 nm and 25 °C using a thermostated Jasco V-650 UV/vis spectrophotometer[11],[19],[25]. Fresh stock solutions of NADPH, GSH, GR, and GSSCys or [compound left out] were prepared in assay buffer containing 0.1 M Tris/HCl, 1 mM EDTA, pH 8.0 before each experiment. Both assays were performed with 0.1 mM NADPH and 1 U/ml ScGR. The following final protein concentrations were used for Y110F/H/A (5–150 nM), D144A/K (10 nM), E147A/K (10 nM), R153A/E (25–50 nM), ScGrx7^WP (20 nM), ScGrx7^loop (up to 1.4 µM), ScGrx7^WP+loop (up 2.6 µM), HsGrx5^C122S (up to 15 µM), HsGrx5^RR (up to 12 µM), HsGrx5^loop (up to 1.6 µM), and HsGrx5^RR+loop (up to 4.0 µM). For the GSSCys assays, GSH was varied between 50 µM and 1.5 mM at fixed GSSCys concentrations (25, 50, 100, and 150 µM). NADPH, GSH, and GR were mixed in assay buffer before Grx was added and a baseline was recorded for 30 s. All GSSCys assays were started by the addition of GSSCys. The absorbance of a reference cuvette containing all components but no Grx was measured in parallel and subtracted from the obtained Grx activity. For the [compound left out] assays, GSH was varied between 100 µM and 2.0 mM at fixed concentrations of [compound left out] (0.18, 0.37, 0.55, and 0.74 mM). NADPH, GSH, and [compound left out] were preincubated in assay buffer for 2 min before GR was added and a baseline was recorded for 30 s. All [compound left out] assays were started by the addition of enzyme. Kinetic data were analyzed in Excel and SigmaPlot 13 by nonlinear and linear regression according to Michaelis–Menten, Lineweaver–Burk, Eadie–Hofstee, and Hanes theory[11],[19],[25]. 13 Supplementary Figure 7 Supplementary Figure 7 | GSSCys assay steady-state kinetics of ScGrx7 wild-type enzyme and D144X mutants. (a) Michaelis-Menten plots of the GSH-dependent reaction velocity at different initial concentrations of GSSCys. […]

[2] = substrate: N[C@@H](CCC(=O)N[C@@H](CSSC[C@H](N)C(=O)O)C(=O)NCC(=O)O)C(=O)O
Protocol: as §1

[3] = substrate: N[C@@H](CCC(=O)N[C@@H](CS)C(=O)NCC(=O)O)C(=O)O; remark: listed apart in the source
Protocol: as §1

[4] = substrate: N[C@@H](CCC(=O)N[C@@H](CSSC[C@H](N)C(=O)O)C(=O)NCC(=O)O)C(=O)O; remark: listed apart in the source
Protocol: as §1

[5] = substrate: N[C@@H](CCC(=O)N[C@@H](CS)C(=O)NCC(=O)O)C(=O)O; remark: listed apart in the source
Protocol: as §1

[6] = substrate: N[C@@H](CCC(=O)N[C@@H](CSSC[C@H](N)C(=O)O)C(=O)NCC(=O)O)C(=O)O; remark: listed apart in the source
Protocol: as §1

[7] = substrate: N[C@@H](CCC(=O)N[C@@H](CSSC[C@H](N)C(=O)O)C(=O)NCC(=O)O)C(=O)O; remark: listed apart in the source
Protocol: as §1

B1: ScGrx7 (Saccharomyces cerevisiae S288C) (protein)
chain: SVNESITTHHPDSLVTFDNSGNAPGTHQSVHDTVNTQDKEAEEVDKNSGDAEFDAAAEYNKIMEQSPMIVFSKTGCPYSKKLKALLTNSYTFSPSYYVVELDRHEHTKELQDQIEKVTGRRTVPNVIIGGTSRGGYTEIAELHKNDELLDSFKKWSDGAFTVKANSQSESA
notes: E. coli XL1-Blue, pQE30; N-terminal MRGS(H)6 tag
Km [1]: 744 µM | kcat [1]: 206 s⁻¹ | Km [2]: 257 µM | Km [3]: 1479 µM | kcat [3]: 334 s⁻¹ | Km [4]: 427 µM | Km [5]: 286 ± 45 µM | kcat [5]: 79.9 ± 27 s⁻¹ | kcat/Km [5]: 273000 M⁻¹ s⁻¹ | Km [6]: 155 ± 29.9 µM | kcat [6]: 114 ± 13 s⁻¹ | kcat/Km [6]: 735000 M⁻¹ s⁻¹ | Km [7]: 266 ± 129 µM | kcat [7]: 163 ± 54.8 s⁻¹ | kcat/Km [7]: 612000 M⁻¹ s⁻¹
